The text below walks through data of US20140017242A1, “ANTI-BRADYKININ B2 RECEPTOR (BKB2R) MONOCLONAL ANTIBODY” (Diamedica, Inc., priority 2010, published 2014).

In experiment [1] the target is T1, human BKB2R-derived epitope peptide (SEQ ID NO:73), PEG-biotin (human, also: PEG-biotin, site not given here).
T1 construct: also called immunogenic human BKB2R peptide fragment
T1 peptide: KEYSDEGHNVTAC
In words: BLI (Octet), peptide-PEG-biotin on streptavidin sensor, antibody 250 nM. Here is the method: (§1) For the Octet study, antibodies were analyzed by kinetic titration of the antibodies. Antibodies were prepared in kinetic buffer (0.001 M phosphate buffered saline (NaCl 0.0138 M; KCl-0.00027 M); pH 7.4, at 25° C., 0.1 mg/ml BSA, 0.002% Tween and 0.005% Sodium Azide) followed by 1:2 serial dilutions.
(§2) Sensor Prep: Streptavidin biosensors (FortéBio Inc, Menlo Park, Calif.) were coated by incubation in a solution containing a peptide ([…]-PEG-biotin) (Biosyn, Lewisville, Tex.) at 50 μg/ml (300 seconds/1000 rpm shaking). 96 well half-volume plates were used for testing. 90 μl of sample was plated per well. Sensors were allowed to equilibrate to baseline in kinetic buffer (60 seconds/1000 rpm). The sensors were then placed into the various antibody dilutions to allow binding (association) to the probe for 500 seconds/1000 rpm, and measurements were taken. The sensors were then moved into kinetic buffer without antibody for dissociation (500 seconds/1000 rpm), and measurements were taken. Octet system software calculated kinetic constants for on rate/off rate/affinity.
(§3) For test humanized monoclonal antibodies, the highest concentration used was 500 nM followed by 1:2 dilutions. Each concentration was tested twice. The HC and LC represented the mouse original 5F12G1 VH and VL sequences.
For orientation: In BLI a coated tip is dipped into the sample, and binding shifts an interference pattern.

Experiment [2] concerns the target T1, human BKB2R-derived epitope peptide …. In words: BLI (Octet), peptide-PEG-biotin on streptavidin sensor, antibody 500 nM. Here is the method:
as §1, §2, §3

In experiment [3] the target is T2, human BKB2R-derived epitope peptide, SE ID NO:73 (Homo sapiens, UniProt P30411).
T2 construct: purchased Biosyn, Lewisville, Tex
Nature of the experiment: ForteBio Octet binding kinetics to the BKB2R epitope peptide. Here is the method:
Proteins corresponding to all combinations of humanized or chimeric (5F12G1 VH and VL on human IgG2 backbone) antibodies were tested for binding to the human BKB2R-derived epitope peptide, SE ID NO:73.
A ForteBio (Menlo Park, Calif., USA) Octet® platform was used to analyze the binding affinities and binding characteristics of the humanized monoclonal antibodies to the peptide epitope (SEQ ID NO:73) and compared to the original mouse monoclonal 5F12G1. This platform employed label-free technology for measuring biomolecular interactions by optical analysis of the interference pattern of white light reflected from two surfaces: a layer of immobilized protein on the biosensor tip, and an internal reference layer. Any change in the number of molecules bound to the biosensor tip caused a shift in the interference pattern that was measured in real-time. Binding specificity, and rates of association and dissociation were monitored.
as §1, §2
[…] […] Each concentration was tested twice. The HC and LC represented the mouse original 5F12G1 VH and VL sequences.

Where no end group is shown, it is not given here.

B1: humanized anti-BKB2R antibody L1/H2 (antibody, human IgG2, kappa, V domains shown)
VH: EVQLVESGGGLVQPGGSLRLSCVASGFTFSDYWMSWVRQAPGKGLEWVAEIRLKSDNYATHYAESVKGRFTISRDDAKNSLYLQMNSLRAEDTAVYYCTRDYYAMEYWGQGTLVTVSS
VL: DIVMTQSPLSLPVTPGEPASISCRSSQTIVHSNGKTYLEWYLQKPGQSPQLLIYKVSNRFSGVPDRFSGSGSGTDFTLKISRVEAEDVGVYYCFQASHVPYTFGQGTKLEIKR
Regarding B1, in experiment [1], binding was characterised by a dissociation constant (Kd) of 2050 nM, the “Max Response” value stood at 0.174, the off-rate constant (koff) came to 0.719 s⁻¹ and the on-rate (kon) came out at 350000 M⁻¹ s⁻¹. In addition, in experiment [2], the Kd turned out to be 403 nM, the “Max Response” value was determined as 0.161, the koff came out at 0.976 s⁻¹ and the on-rate constant (kon) stood at 2.43e+06 M⁻¹ s⁻¹.

B2: H37/L38: humanized anti-BKB2R mAb, heavy chain H37 (SEQ ID NO:5), light chain L38 (SEQ ID NO:11) (antibody, V domains shown)
VH: EVQLVESGGGLVQPGGSLRLSCAASGFTFSDYWMDWVRQAPGKGLEWVGEIRLKSDNYATHYAASVKGRFTISRDDSKNSLYLQMNSLKTEDTAVYYCTRDYYAMEYWGQGTTVTVSS
VL: DIVMTQTPLSLPVTSGEPASISCRSSQTIVHSNGKTYLDWYLQKPGQSPQLLIYKVSNRASGVPDRFSGSGSGTDFTLKISRVEAEDVGVYYCFQASHVPYTFGGGTKVEIK
modifications: Humanized H37 Heavy Chain Variable Region VH; Humanized L38 Light Chain Variable Region VL
In the case of B2, in experiment [3] (Conc. 500 nM), the “kdis” value was 2.08 s⁻¹ and the “kon” value was found to be 9.47e+06 M⁻¹ s⁻¹.

B3: H37/L37: humanized anti-BKB2R mAb, heavy chain H37 (SEQ ID NO:5), light chain L37 (SEQ ID NO:10) (antibody, V domains shown)
VH: EVQLVESGGGLVQPGGSLRLSCAASGFTFSDYWMDWVRQAPGKGLEWVGEIRLKSDNYATHYAASVKGRFTISRDDSKNSLYLQMNSLKTEDTAVYYCTRDYYAMEYWGQGTTVTVSS
VL: DIVMTQTPLSLSVTPGQPASISCKSSQTIVHSNGKTYLYWYLQKPGQSPQLLIYKVSSRFSGVPDRFSGSGSGTDFTLKISRVEAEDVGVYYCFQASHVPYTFGQGTKLEIK
modifications: Humanized H37 Heavy Chain Variable Region VH; Humanized L37 Light Chain Variable Region VL
For the molecule B3, in experiment [3] (Conc. 500 nM), the “kdis” value stood at 1.18 s⁻¹ and the “kon” value was found to be 1.55e+06 M⁻¹ s⁻¹.

B4: L2/H2: humanized anti-BKB2R mAb, light chain L2 (SEQ ID NO:9), heavy chain H2 (SEQ ID NO:4) (antibody, V domains shown)
VH: EVQLVESGGGLVQPGGSLRLSCVASGFTFSDYWMSWVRQAPGKGLEWVAEIRLKSDNYATHYAESVKGRFTISRDDAKNSLYLQMNSLRAEDTAVYYCTRDYYAMEYWGQGTLVTVSS
VL: DIVMTQSPLSLPVTPGEPASISCRSSQTIVHSNGKTYLEWYLQKPGQSPQLLIYKVSNRFSGVPDRFSGSGSGTEFTLKISRVEAEDVGVYYCFQASHVPYTFGQGTKLEIK
modifications: Humanized H2 Heavy Chain Variable Region VH; Humanized L2 Light Chain Variable Region VL
Turning to B4, the “kdis” value in experiment [3] (Conc. 250 nM) worked out at 0.0359 s⁻¹; in experiment [3] (Conc. 500 nM), 0.0223 s⁻¹. Also, the “kon” value in experiment [3] (Conc. 250 nM) worked out at 1.76e+06 M⁻¹ s⁻¹; in experiment [3] (Conc. 500 nM) it was 992000 M⁻¹ s⁻¹.

B5: H38/L37: humanized anti-BKB2R mAb, heavy chain H38 (SEQ ID NO:6), light chain L37 (SEQ ID NO:10) (antibody, V domains shown)
VH: EVQLLESGGGLVQPGGSLKLSCAVSGFTFSDYWMSWVRQAPGKGLEWVSEIRLKSDNYATHYADSVKGRFTISRDDSKNTLYLQMNSLRAEDTAVYYCTRDYYAMEYWGQGTLVTVSS
VL: DIVMTQTPLSLSVTPGQPASISCKSSQTIVHSNGKTYLYWYLQKPGQSPQLLIYKVSSRFSGVPDRFSGSGSGTDFTLKISRVEAEDVGVYYCFQASHVPYTFGQGTKLEIK
modifications: Humanized H38 Heavy Chain Variable Region VH; Humanized L37 Light Chain Variable Region VL
In the case of B5, in experiment [3] (Conc. 500 nM), the “kdis” value turned out to be 29.4 s⁻¹ and the on-rate (kon) was determined as 9.44e+06 M⁻¹ s⁻¹.

B6: L1/H2: humanized anti-BKB2R mAb, light chain L1 (SEQ ID NO:8), heavy chain H2 (SEQ ID NO:4) (antibody, V domains shown)
VH: EVQLVESGGGLVQPGGSLRLSCVASGFTFSDYWMSWVRQAPGKGLEWVAEIRLKSDNYATHYAESVKGRFTISRDDAKNSLYLQMNSLRAEDTAVYYCTRDYYAMEYWGQGTLVTVSS
VL: DIVMTQSPLSLPVTPGEPASISCRSSQTIVHSNGKTYLEWYLQKPGQSPQLLIYKVSNRFSGVPDRFSGSGSGTDFTLKISRVEAEDVGVYYCFQASHVPYTFGQGTKLEIK
modifications: Humanized H2 Heavy Chain Variable Region VH; Humanized L1 Light Chain Variable Region VL
Turning to B6, in experiment [3] (Conc. 250 nM), the “kdis” value stood at 0.719 s⁻¹ and the “kon” value is 350000 M⁻¹ s⁻¹. In experiment [3] (Conc. 500 nM), the “kdis” value is 0.976 s⁻¹ and the “kon” value came to 2.43e+06 M⁻¹ s⁻¹.

B7: H37/L39: humanized anti-BKB2R mAb, heavy chain H37 (SEQ ID NO:5), light chain L39 (SEQ ID NO:12) (antibody, V domains shown)
VH: EVQLVESGGGLVQPGGSLRLSCAASGFTFSDYWMDWVRQAPGKGLEWVGEIRLKSDNYATHYAASVKGRFTISRDDSKNSLYLQMNSLKTEDTAVYYCTRDYYAMEYWGQGTTVTVSS
VL: DVVMTQTPLSLSVTPGQPASISCKSSQTIVHSNGKTYLEWYLQKPGQSPQLLIYKVSNRFSGVPDRFSGSGSGTDFTLKISRVEAEDVGVYYCFQASHVPYTFGQGTKLEIK
modifications: Humanized H37 Heavy Chain Variable Region VH; Humanized L39 Light Chain Region VL
Turning to B7, in experiment [3] (Conc. 500 nM), the “kdis” value amounted to 1.98 s⁻¹ and the on-rate constant (kon) came to 1.11e+06 M⁻¹ s⁻¹.

B8: L2/H1: humanized anti-BKB2R mAb, light chain L2 (SEQ ID NO:9), heavy chain H1 (SEQ ID NO:3) (antibody, V domains shown)
VH: EVQLVESGGGLVQPGGSLRLSCAASGFTFSDYWMSWVRQAPGKGLEWVAEIRLKSDNYATHYAESVKGRFTISRDNAKNSLYLQMNSLRAEDTAVYYCTRDYYAMEYWGQGTLVTVSS
VL: DIVMTQSPLSLPVTPGEPASISCRSSQTIVHSNGKTYLEWYLQKPGQSPQLLIYKVSNRFSGVPDRFSGSGSGTEFTLKISRVEAEDVGVYYCFQASHVPYTFGQGTKLEIK
modifications: Humanized H1 Heavy Chain Variable Region VH; Humanized L2 Light Chain Variable Region VL
As to B8, in experiment [3] (Conc. 250 nM), the “kdis” value stood at 0.00438 s⁻¹ and the “kon” value was 216000 M⁻¹ s⁻¹. Also, in experiment [3] (Conc. 500 nM), the “kdis” value worked out at 0.00507 s⁻¹ and the on-rate (kon) amounted to 1.21e+06 M⁻¹ s⁻¹.

B9: H39/L38: humanized anti-BKB2R mAb, heavy chain H39 (SEQ ID NO:7), light chain L38 (SEQ ID NO:11) (antibody, V domains shown)
VH: EVKLVESGGGLVQPGGSLRLSCAVSGFTFSDYWMDWVRQAPGKGLEWVAEIRLKSDNYATHYAASVKGRFTISRDDSKSRLYLQMNSLKTEDTAVYYCTRDYYAMEYWGQGTTVTVSS
VL: DIVMTQTPLSLPVTSGEPASISCRSSQTIVHSNGKTYLDWYLQKPGQSPQLLIYKVSNRASGVPDRFSGSGSGTDFTLKISRVEAEDVGVYYCFQASHVPYTFGGGTKVEIK
modifications: Humanized H39 Heavy Chain Variable Region VH; Humanized L38 Light Chain Variable Region VL
As to B9, in experiment [3] (Conc. 500 nM), the “kdis” value turned out to be 4.9 s⁻¹ and the on-rate constant (kon) was determined as 6.44e+06 M⁻¹ s⁻¹.

B10: H39/L39: humanized anti-BKB2R mAb, heavy chain H39 (SEQ ID NO:7), light chain L39 (SEQ ID NO:12) (antibody, V domains shown)
VH: EVKLVESGGGLVQPGGSLRLSCAVSGFTFSDYWMDWVRQAPGKGLEWVAEIRLKSDNYATHYAASVKGRFTISRDDSKSRLYLQMNSLKTEDTAVYYCTRDYYAMEYWGQGTTVTVSS
VL: DVVMTQTPLSLSVTPGQPASISCKSSQTIVHSNGKTYLEWYLQKPGQSPQLLIYKVSNRFSGVPDRFSGSGSGTDFTLKISRVEAEDVGVYYCFQASHVPYTFGQGTKLEIK
modifications: Humanized H39 Heavy Chain Variable Region VH; Humanized L39 Light Chain Region VL
For B10, in experiment [3] (Conc. 500 nM), the “kdis” value was determined as 1.26 s⁻¹ and the “kon” value was 729000 M⁻¹ s⁻¹.

The term Kd denotes a measure of binding affinity in units of concentration. High values mean a looser complex, low ones a tighter complex. A word on the koff: it is the rate constant with which the complex falls apart. Read a high koff as fast dissociation. One may read the kon as a measure of how fast the partners come together.
